# Test results: patent publication US20220089698A1 (published 2022)
# Substitutions are numbered along the chain they refer to.
# T1: Cyno FcγRIIA (cynomolgus macaque, UniProt A0A140HDM9 28-216)
# T1 construct: also called cynomolgus macaque FcγRIIA
# T1 sequence: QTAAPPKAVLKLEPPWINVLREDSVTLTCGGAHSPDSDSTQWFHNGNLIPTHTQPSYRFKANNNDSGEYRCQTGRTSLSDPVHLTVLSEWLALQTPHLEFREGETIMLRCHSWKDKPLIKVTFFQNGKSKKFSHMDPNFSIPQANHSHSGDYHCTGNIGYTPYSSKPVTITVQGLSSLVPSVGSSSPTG
# T2: Cyno FcγRIIB (cynomolgus macaque, UniProt A0A140HDN4 43-217)
# T2 construct: also called cynomolgus macaque FcγRIIB
# T2 sequence: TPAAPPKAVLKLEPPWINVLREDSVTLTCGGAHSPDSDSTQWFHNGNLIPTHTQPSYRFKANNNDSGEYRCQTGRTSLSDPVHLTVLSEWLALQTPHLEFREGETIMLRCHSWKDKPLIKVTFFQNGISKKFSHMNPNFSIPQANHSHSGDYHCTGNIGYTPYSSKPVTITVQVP
# B1: Antibody A-1 (antibody, human IgG1, kappa)
# heavy: QVQLLQSGAAVTKPGASVRVSCEASGYNIRDYFIHWWRQAPGQGLQWVGWINPKTGQPNNPRQFQGRVSLTRHASWDFDTFSFYMDLKALRSDDTAVYFCARQRSDYWDFDVWGSGTQVTVSSASTKGPSVFPLAPSSKSTSGGTAALGCLVKDYFPEPVTVSWNSGALTSGVHTFPAVLQSSGLYSLSSVVTVPSSSLGTQTYICNVNHKPSNTKVDKKVEPKSCDKTHTCPPCPAPELLAGPDVFLFPPKPKDTLMISRTPEVTCVVVDVSHEDPEVKFNWYVDGVEVHNAKTKPREEQYNSTYRVVSVLTVLHQDWLNGKEYKCKVSNKALPLPEEKTISKAKGQPREPQVYTLPPSREEMTKNQVSLTCLVKGFYPSDIAVEWESNGQPENNYKTTPPVLDSDGSFFLYSKLTVDKSRWQQGNVFSCSVLHEALHSHYTQKSLSLSPGK
# light: DIQMTQSPSSLSASVGDTVTITCQANGYLNWYQQRRGKAPKLLIYDGSKLERGVPSRFSGRRWGQEYNLTINNLQPEDIATYFCQVYEFVVPGTRLDLKRTVAAPSVFIFPPSDEQLKSGTASVVCLLNNFYPREAKVQWKVDNALQSGNSQESVTEQDSKDSTYSLSSTLTLSKADYEKHKVYACEVTHQGLSSPVTKSFNRGEC
# B2: 1.11.1-1 (antibody, human IgG1, kappa)
# heavy: B1 heavy with I34M, F83A
# light: B1 light
# B3: Antibody 1.52.64-1 (antibody, human IgG1, kappa)
# heavy: B1 heavy with W76F
# light: B1 light with V19A
# B4: Antibody A (antibody, human IgG1, kappa)
# heavy: not shown
# light: B1 light
# What was measured:
# HIV gp120 CAAN [1] = biological target: HIV gp120 CAAN (HIV-1)
# HIV gp120 REJO = HIV gp120 REJO (HIV-1)
# HIV gp120 Bal [2] = biological target: HIV gp120 Bal (HIV-1)
# Cyno FcγRIIA = biological target: T1, Cyno FcγRIIA; test: SPR (Biacore 4000), antibody amine coupled to CM4 chip, receptor as analyte, steady-state fit
# Cyno FcγRIIB = biological target: T2, Cyno FcγRIIB; test: as above
# HIV gp120 CAAN [3] = biological target: HIV gp120 CAAN (HIV); test: single-point ELISA; also: test concentration or dose not given here
# HIV gp120 Bal [4] = biological target: HIV gp120 Bal (HIV); test: single-point ELISA; also: test concentration or dose not given here
Binder,EC50 (HIV gp120 CAAN [1]) [nM],EC50 (HIV gp120 REJO) [nM],EC50 (HIV gp120 Bal [2]) [nM],Kd (Cyno FcγRIIA) [nM],Kd (Cyno FcγRIIB) [nM],ELISA (A450) (HIV gp120 CAAN [3]),ELISA (A450) (HIV gp120 Bal [4])
B1,2.17,2.37,0.06,1100,240,–,–
B2,–,–,–,–,–,0.75,0.93
B3,3.79,4.02,0.07,1180,280,–,–
B4,1.84,2.21,0.05,2000,895,–,–
